{
  "source": "patent US20180087116",
  "about": "“METHODS AND BIOSENSORS FOR TUMOR DETECTION” (published 2018)",
  "key": {"[1]": {"molecular_target": "Human serum albumin (HSA) (Homo sapiens, UniProt P02768 P02768:25-609)", "sequence (P02768 25-609, one chain of several)": "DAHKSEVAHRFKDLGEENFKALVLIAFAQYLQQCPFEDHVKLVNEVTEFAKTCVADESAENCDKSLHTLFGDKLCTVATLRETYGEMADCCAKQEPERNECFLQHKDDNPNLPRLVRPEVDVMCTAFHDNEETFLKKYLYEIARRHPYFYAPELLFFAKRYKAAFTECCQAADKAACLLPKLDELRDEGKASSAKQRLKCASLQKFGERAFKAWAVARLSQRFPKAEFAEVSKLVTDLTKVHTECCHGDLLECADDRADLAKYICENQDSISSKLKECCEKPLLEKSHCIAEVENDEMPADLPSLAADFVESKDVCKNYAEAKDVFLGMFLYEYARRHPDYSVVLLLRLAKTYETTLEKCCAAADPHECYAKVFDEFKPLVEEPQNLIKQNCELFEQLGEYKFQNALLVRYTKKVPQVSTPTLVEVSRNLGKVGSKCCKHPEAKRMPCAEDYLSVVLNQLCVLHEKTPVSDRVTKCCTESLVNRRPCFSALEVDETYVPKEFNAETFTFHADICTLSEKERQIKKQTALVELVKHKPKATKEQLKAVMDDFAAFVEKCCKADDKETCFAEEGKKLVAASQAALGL", "experiment": "selectivity control, 20 nM HSA in PBS; methylene blue release fluorescence; values only in figure", "details": "label: methylene blue (non-covalently adsorbed)", "experimental": "(§1) In this example, the fabricated MB/aptamer/nanomotors of EXAMPLE 1 were guided by a magnetic field into solutions (human serum samples) containing various concentration of VEGF165 to react with the fabricated MB/aptamer/nanomotor for about 40 minutes. MB can specifically bind with guanine bases in ss-DNA and the used aptamer herein as a type of ss-DNA riches of guanine bases. The fabricated MB/aptamer/nanomotors were stored at about 4° C. in the refrigerator when they were not in use. Then, the MB/aptamer/nanomotors biosensor was guided to solutions containing the various concentration of VEGF165 tumor marker. Upon exposing MB/aptamer/nanomotor with VEGF165, the adsorbed MB to aptamers released to the solution and let to increase the fluorescence signal of MB. The proposed nanomotor may be used for ‘on-the-fly’ interaction of biological targets such as VEGF165 by functionalizing the gold surface of the nanomotor with various bio-receptors.\nIn addition, to evaluate the selectivity of the proposed biosensor, some of bio-molecules such as human serum albumin (HSA), bovine serum albumin (BSA), glucose (G), urea (U), dopamine (D) and human immunoglobulin G (HIgG) were used as the potential interferences to evaluate the specificity and the results were shown in FIG. 7."}, "[2]": {"molecular_target": "VEGF165 (UniProt P15692-4 P15692-4:27-191)", "sequence (P15692 other isoform, or with tags, fused parts or gaps)": "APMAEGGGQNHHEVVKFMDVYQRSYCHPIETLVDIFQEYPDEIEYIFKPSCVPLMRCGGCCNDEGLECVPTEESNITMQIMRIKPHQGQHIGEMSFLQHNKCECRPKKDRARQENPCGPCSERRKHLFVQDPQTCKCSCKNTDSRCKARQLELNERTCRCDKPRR", "experiment": "methylene blue release from aptamer/nanomotor, fluorescence increase; linear response 2.5-30 nM VEGF165; human serum samples or PBS, 40 min", "details": "chain copies: 2; label: methylene blue (non-covalently adsorbed)", "experimental": "as §1\nIn FIG. 6B, relative fluorescence changes are calculated by F/F0, where F0 (7.8) and F are the fluorescence intensity without and with VEGF165, respectively, and excitation wavelength was 625 nm."}},
  "data": [
    {"binder": "TTTCCCGTCTTCCAGACAAGAGTGCAGGG (ssDNA, 5'-SH (thiol), immobilised on Au segment of nanomotor)", "note": "[anti-VEGF DNA aptamer]", "values": [
      {"measurement": "binding result", "setting": "[1]", "value": "no binding"},
      {"measurement": "binding result", "setting": "[2]", "value": "binds"}
    ]}
  ]
}
